# Ends that are not written are not given here.
# Assays:
# Test in all cases: cell-based or functional assay
# [1] = target: recombinant CRH R2-alpha expressed in 293T cells (UniProt Q13324)
# [2] = target: recombinant CRH R2 beta expressed in 293T cells (UniProt Q13324)
# [3] = target: recombinant CRH R2 expressed in 293T cells (isoform not stated, Fig. 3f), Q13324
# Chain of recombinant CRH R2 expressed in 293T cells (isoform not stated, Fig. 3f), Q13324 (Q13324 20-411): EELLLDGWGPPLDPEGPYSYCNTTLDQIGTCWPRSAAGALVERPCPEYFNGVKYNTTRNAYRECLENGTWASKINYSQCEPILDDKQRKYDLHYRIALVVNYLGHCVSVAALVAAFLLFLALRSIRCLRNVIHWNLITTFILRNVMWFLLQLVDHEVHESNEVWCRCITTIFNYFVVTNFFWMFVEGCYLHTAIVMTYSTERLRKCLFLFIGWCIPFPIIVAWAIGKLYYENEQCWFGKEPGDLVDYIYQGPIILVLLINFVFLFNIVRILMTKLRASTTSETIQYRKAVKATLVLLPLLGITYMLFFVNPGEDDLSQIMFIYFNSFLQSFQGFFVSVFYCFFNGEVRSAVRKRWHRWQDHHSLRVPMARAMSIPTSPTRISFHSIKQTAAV
Molecule,"potency in cAMP production, compared to stresscopin 2 and the pufferfish peptide [1] [fold]","potency in cAMP production, compared to stresscopin 2 and the pufferfish peptide [2] [fold]","reduction in ability to stimulate cAMP production, against amidated stresscopin 1 [3] [fold]"
"stresscopin 1 (full-length 43-amino-acid mature peptide, synthetic, amidated)",> 10,> 10,–
"HPGSRIVLSLDVILGLLQILLEQARARAAREQATTNARILARV-OH [SCP1-NA, full-length stresscopin 1 devoid of amidation at the C-terminus]",–,–,> 50

# — patent US20020082409A1
